These results are taken from the DeepSol protein solubility set.

A short description of the data set: soluble on expression in E. coli; label from the status in PepcDB or PDB records.
“MQFYQPPAQQHLARSTPPPNFAQPYGMGMRPHEEETRQIMNLDSQQTHSSSPTSSWNQPYGQMSNPYQQRGPSLYAPPGPPVMHQNGPPGVVPTSNPYYQPPVPPQHHHMQPQAPMMSPGMHGQQQQQPYYNTQSPLTGTPPSMSYGTPQIPAPPPTSNGSAPMFNFSKPRNSNEGSLTNGGGGAAHRRKKHNDLSSPRYSSNSNEDVDGSVFPDMADFPLLDVVQSKAKKDAGRKPCRPHLCEQSRMLISRVCHFHREFIKRLPARHPLVNSPFSKPDQWTSQIMGISLATVRKCIDMAVDEEVFTRCTDKNLVNLTPSERAEREELLSKLSTVFEDEKSLGAGTAGMTIAEYSPRRSYSNTLLRQSTDDKSSTSSYNANGGEYGGSTETTLLNLDDHSNSSKDYGMTPTTPAAPVASSVTSDLGGGGGQVFEEIGAIGGGMSTESSLDDKSAVKIPKRGRPCKAPGTTATNKSTKRKESQDGGQEVGGPVEDKDDHEKKTEDEDETNEETEKIEVQQADQAEREDDAASSEGTNRSETATPELATDTTAVAKKTRSAAARRKNTKTVDDEFAGATKKKRGSVTAATAGIGGDDENSDHKMVTRARSRQP”: the “soluble on expression in E. coli” value is on record as “not soluble”.
For the sequence “PVIGSVAPESLAAQAGLEAGQELLAVDGEPVTGWNGVNLQLVRRLGESGTLEVRVQEKGSNVDSTHQVRLDGWLKGEDNPDPIASLGIRPWRPALPPVLAELDPKGPAQAAGLKLGDRLQSIDGIAVDDWQQVVDSVRARPGQRVQLKVLRDGEVLDVALELAVRGEGKARSGYMGAGVAGTEWPAEMLREVSYGPLEAVGQALSRTWTMSLLTLDSIKKMLLGELSVKNLSGPITIAKVAGASAQSGVGDFLNF”, the “soluble on expression in E. coli” value is “not soluble”.
“GPGSMAIEVATSTRLQYARMLRSMLEMDRTPLDMMILGFQKIAARSETRQTRQARPVTEEEMNEYIRSRTDWKERVVVRLAWMTASRWSEIAALNPNNFKLKPDGALILDWPVVPKTARADPHRAFRFVRIRGQDAFDIIKLCRTLQENEKLTNITNAQVERALAPWDATAHSIERGALRHAAQIVEKYNLDPHVISQLAKHVNPFDLPQNTV”: the “soluble on expression in E. coli” value is listed as “soluble”.
As for “MISSKLKLQSLTSKDLSAILELDQACFGGLWTMEGYQRELDSPNSDLLGLFSPSSPIKLLGMGCFWSIVGEAHITILAVHPQYHHQGLGQALLYFLLRTASDRGLERATLEVRASNEAAISLYQKFGFQTAGRRRAYYQDNGEDALILWLPDLQYPQFQETLAHWKTIIQDGLQKYSWSIVNSR”, the “soluble on expression in E. coli” value is on record as “soluble”.
Take “MGSDKIHHHHHHMLFNQLQNETNLTNSEKEIARYLLNQNLDLATLSAQKLGELTFTSKPTVLRFIKKLGYKKFNEFCYDLISEQERIKKSRDLLKHININKDSNLSDLLIKVPNLYNQAINRTNSLMDQENLNLIVKKLNTLDYIDFYGSGITEGLAQIGSFKFSSIGKFGGVYSNVNEHYLTSIHGINKHGAIIISFTGGNKAMINAAKDLKKLNIYSLGIGGLENEELKNNCSSYLTIPFENLSLGMESIVPSVAINYVIDILFTSLTIKNLSQNVTNALKVKNLRK”: the “soluble on expression in E. coli” value is reported as “not soluble”.
As for “MIRLQKFKQLTVWVMLGLLTSWIVSCSTDNVGTISKPVTSEVTKIEFWTMQLQPQFTNYFQSLITSFESQNPSIKVKWVDVPWSAMENKILTAVSAKTPPDVVNLNPDFASQLAGRNAWLDLDEKVPSEVSSSYLPNIWQASTLNGKTFGIPWYLTTRLTIYNTDLLKQAGITKPPATYTELAQEAQQIKDKTGKYAFFATFVPQDSGEVLESFVQMGVTLVNAEGKAAFNSPQGKAAFQYWVYLYKKGLLPKESLTQGHRHAIDLYQSGETAFLASGPEFLETISNNAPKISQASAIAPQITGDTGKKNVAVMNIVIPRASKQPDAAVKFALFVTNDENQLAFAKAANVLPSTVTALADSYFKEVPATATIAEKGRIISAQQMQTAEVLTPKMKDFKFLQKAIYENLQAAMLGQKTVDKALEDAAQQWNNR”, the “soluble on expression in E. coli” value was “not soluble”.
“MGSDKIHHHHHHMRDSTQLPVTRRMLPSLYQSICLILCSQNLSGINLSGISPSSISLGPSTLFRHTRLSQRLAKFQIPRPIKHQSQRFSIFALACFVAATLSGCANSLETCARTELKLTWAEPAELQATVTILSSDEFEGRKTQTQGAAKSRDYIKQQFESLNLQPWGADFIVPFEYQTFFTQETGANVVATAMATEPTNRWRIIVAHYDHLGMSGSKIYHGADDNASGVAAMLAIAKHWQQQFALQPNTLPKVNLMFVATDAEEPGLYGSIALVEQLKTRLPEATFELMINLDMVSHPGRPYGIYLEGSRNFTQFNQFKSLLNQQNRLCIKLTHPKPVGRSIQSTDWLRASDHYPFHKANIPWLYFGVPTHPQYHTPEDTVATIDITFLAAVTESAFELLQLNAEYLKN”: the “soluble on expression in E. coli” value is “not soluble”.
Then “DVRGMSQSVGAVVRGFATADPHVRIAGVILNKVGTDRHAEVCREAVEAVGVRVLGAIPRVDHAEVPSRHLGLITSVELDAAEDAVAAMATMVEEHVDLNALIELADCAYNGPAWDPALAMGMSDAEALDN”, with “not soluble”; and “MSLEIADLKVHFDIKEGKQWFWQPPKTLKAVDGVTLRLYEGETLGVVGESGCGKSTFARAIIGLVKATDGKVAWLGKDLLGMKADEWREVRSDIQMIFQDPLASLNPRMTIGEIIAEPLRTYHPKLSRQDVRDRVKAMMLKVGLLPNLINRYPHEFSGGQCQRIGIARALILEPKLIICDEPVSALDVSIQAQVVNLLQQLQREMGLSLIFIAHDLAVVKHISDRVLVMYLGHAVELGTYDEVYHNPLHPYTKALMLAVPIPDPDLERNKKIQLLEGELPSPINPPSEGHHHHHH”, with “soluble”.
In the case of “MRLDVEQTSKLDRVRADYNVHYWSQGFYGIDDQGEMYVSPRSDNAHQIQLSKIVKQLEERQLNVPVLVRFPQILHQRVHSICDAFNQAIEEYQYPNKYLLVYPIKVNQQREVVDEILASQAQLETKQLGLEAGSKPELLAVLAMAQHASSVIVCNGYKDREYIRLALIGEKLGHKVFIVLEKMSELDLVLREAKSLGVTPRLGIRIRLASQGAGKWQASGGEKSKFGLSASQVLNVISRLKKENQLDTLQLVHFHLGSQMANIRDVRNGVNESARFYCELRTLGANITYFDVGGGLAIDYDGTRSQSSNSMNYGLVEYARNIVNTVGDVCKDYKQPMPVIISESGRSLTAHHAVLISNVIGTETYKPETVTEPEEDFPLLLNNMWRSWLNLHNGTDARALIEIYNDTQSDLAEVHSQFATGVLTLEHRAWAEQTSLRIYYELNRLMSTKNRFHRPILDELSERLADKFFVNFSLFQSLPDSWGIDQVFPVLPLSGLQNAADRRAVMLDITCDSDGAIDAYVDGQGIESTLPVPAWNEDEPYLMGFFLVGAYQEILGDMHNLFGDTHSVVVNVGDQGEINIDFINEGDTVEDMMRYVHIDVDQIRKNYHSLVSQRVDQEEQQQILAELEQGLSGYTYLEDFLEHHHHHH”, the “soluble on expression in E. coli” value is recorded as “soluble”.
Regarding “SSVNYAAGLSPYADKGICGLPETFDSPEELKTKVETLAQWIRESQYMVVHSGAGISTSTGIPDFRGPNGVWTMEERGETPHFNTTFEDARPSLTHMALLQMQRTGHLKYLISQNVDGLHVRSGFPRDRLSELHGNMFVEECEKCGKQYVRDTVVGVMGLKPTGRYCDVMRSRGLRSCRGKLISSILDWEDSLPDRDLNRADEASRRADLALTLGTSLQIKPSGDLPLLTKRTGGKLVIVNLQPTKHDKHAHLRIYGYVDDVMGQLMKLLGLDVPEWAGPTLCEDSGGDLDILPYGAWKKEVKIELKIEESNHTVSKKRKRKEQHAEEGYKNGVKVEEEMKEEGKESDSHVHTHT”, the “soluble on expression in E. coli” value was “soluble”.
Then “MPRISKRQLILESAAAIINEKGADYLTLDAVAQRAGISKGGLFYHFKSKDELIKELVNYANNLYRDNVNQHIGNEKNKKGQWLNAFIEATRAHRTDNAPITSGMLAAQGTNRSLLSPLKTSYQEWQYQITHDGLDEVDATIIRLAVDGLWLSEIFGISAIDEEMREKVIERLKMQIEKN”, with “not soluble”.
